Measured values published in the Human Domainome abundance scans (Beltran et al. 2025).
± gives the uncertainty stated by the source.

B1: Lysine-specific demethylase 5C, residues 319 to 373; numbered along this chain, P41229 (parent)
chain: AQFIESYVCRMCSRGDEDDKLLLCDGCDDNYHIFCLLPPLPEIPKGVWRCPKCVM
B2: Tripartite motif-containing protein 49C, residues 87 to 133; numbered along this chain, P0CI26 (parent)
chain: SSEEQMCGTHRETKKIFCEVDRSLLCLLCSSSQEHRYHRHRPIEWAA

Variants of: B1
Assay: abundance fitness (aPCA) (normalised: wild type 0, dead -1); higher = more abundant; growth selection in yeast, the domain comes from the species named
Details: Homo sapiens

Abundance fitness: each site, then its substitutions
L40: F -0.678 ± 0.46
C50: Y -0.761 ± 0.28, E -0.992 ± 0.24, P -0.987 ± 0.46, V -1.05 ± 0.19, N -0.927 ± 0.48, R -0.926 ± 0.14, M -1.17 ± 0.44, D -0.841 ± 0.25, K -1 ± 0.27, G -1.01 ± 0.15, F -0.421 ± 0.23, A -0.887 ± 0.19, T -1.05 ± 0.39, Q -0.71 ± 0.22, L -0.702 ± 0.14, W -0.823 ± 0.22, I -0.757 ± 0.35
L36: T -0.16 ± 0.15, R -0.732 ± 0.14, P -0.613 ± 0.2, M -0.275 ± 0.17, G -0.688 ± 0.17, C 0.232 ± 0.13, D -0.898 ± 0.32, I -0.134 ± 0.18, S -0.157 ± 0.091, Q -0.555 ± 0.25, E -0.551 ± 0.21, V -0.118 ± 0.1, F -0.26 ± 0.17, N -0.576 ± 0.25, H 0.006 ± 0.26, W -0.237 ± 0.2
V47: F 0.082 ± 0.23, W -0.473 ± 0.18, H -0.064 ± 0.22, R 0.044 ± 0.087, D -0.064 ± 0.16, L -0.359 ± 0.16, Q 0.208 ± 0.2, T -0.101 ± 0.15, I -0.132 ± 0.18, M -0.157 ± 0.18, E -0.142 ± 0.14, P -0.247 ± 0.24, G -0.061 ± 0.091, K 0.154 ± 0.16, N -0.052 ± 0.19, C -0.213 ± 0.2, S 0.081 ± 0.12, Y -0.058 ± 0.19, A -0.241 ± 0.13
M55: V 0.015 ± 0.17, S 0.295 ± 0.24, I -0.346 ± 0.44, T -0.183 ± 0.31, L -0.154 ± 0.18, G -0.61 ± 0.24, P 0.446 ± 0.44, A -0.035 ± 0.41
W48: K -0.635 ± 0.18, D -0.686 ± 0.46, N -0.853 ± 0.41, A -0.59 ± 0.11, S -0.839 ± 0.15, M -0.671 ± 0.17, H -0.811 ± 0.37, L -0.849 ± 0.15, F -0.253 ± 0.22, G -0.676 ± 0.14, Q -0.566 ± 0.17, T -1.05 ± 0.25, I -0.14 ± 0.27, R -0.611 ± 0.13, C -1.15 ± 0.44, Y -0.568 ± 0.34, V -0.78 ± 0.14
R49: F -0.358 ± 0.14, A -0.262 ± 0.16, T -0.055 ± 0.16, C -0.468 ± 0.22, L -0.164 ± 0.12, K 0.205 ± 0.17, P -0.949 ± 0.31, E -0.178 ± 0.17, Q 0.106 ± 0.19, V -0.25 ± 0.15, H -0.134 ± 0.19, D -0.865 ± 0.34, I -0.176 ± 0.2, M -0.092 ± 0.19, S -0.324 ± 0.13, N 0.268 ± 0.15, W -0.085 ± 0.31, G -0.4 ± 0.2
K52: P 0.049 ± 0.17, V -0.123 ± 0.12, H -0.184 ± 0.2, I 0.006 ± 0.21, S -0.183 ± 0.12, R 0.007 ± 0.096, E -0.23 ± 0.15, F -0.14 ± 0.23, M -0.611 ± 0.27, G -0.024 ± 0.085, L -0.282 ± 0.12, T 0.018 ± 0.13, Y -0.286 ± 0.24, A 0.02 ± 0.12, W -0.364 ± 0.16, D 0.095 ± 0.17, N -0.032 ± 0.21, Q -0.065 ± 0.19
I43: M 0.156 ± 0.14, N -0.222 ± 0.25, P -0.307 ± 0.17, H -0.139 ± 0.17, E -0.057 ± 0.32, C -0.314 ± 0.15, R -0.022 ± 0.092, Q 0.076 ± 0.14, Y -0.333 ± 0.16, W -0.202 ± 0.14, F -0.21 ± 0.23, L 0.101 ± 0.1, A -0.281 ± 0.18, V -0.137 ± 0.15, S -0.082 ± 0.11, K -0.101 ± 0.14, T -0.467 ± 0.17, G -0.302 ± 0.12, D -0.462 ± 0.36
P39: T -0.599 ± 0.17, N -0.045 ± 0.17, F -0.667 ± 0.29, G -0.217 ± 0.12, R -0.164 ± 0.12, Y -0.59 ± 0.21, H -0.787 ± 0.3, D -0.233 ± 0.18, Q -0.276 ± 0.16, C -0.264 ± 0.15, W -0.752 ± 0.27, I -0.076 ± 0.19, E -0.025 ± 0.16, A -0.018 ± 0.11, K 0.148 ± 0.17, S 0.078 ± 0.1, M -0.292 ± 0.18, V -0.129 ± 0.11, L -0.473 ± 0.14
P51: D 0.009 ± 0.19, T -0.467 ± 0.17, V -0.153 ± 0.13, M -0.092 ± 0.16, Y -0.312 ± 0.26, G -0.494 ± 0.18, A -0.258 ± 0.17, I -0.175 ± 0.19, F -0.048 ± 0.2, Q -0.136 ± 0.16, H -0.015 ± 0.17, S 0.138 ± 0.11, K 0.131 ± 0.19, L -0.671 ± 0.14, C -0.427 ± 0.19
E42: C -0.245 ± 0.15, T 0.068 ± 0.11, W -0.333 ± 0.14, V -0.157 ± 0.14, H -0.44 ± 0.19, N -0.034 ± 0.17, A -0.05 ± 0.15, M -0.37 ± 0.19, K -0.506 ± 0.17, F -0.231 ± 0.17, Y -0.125 ± 0.16, S -0.273 ± 0.094, Q 0.033 ± 0.27, D 0.043 ± 0.24, G -0.157 ± 0.15, I 0.009 ± 0.27, L -0.431 ± 0.11, P -0.611 ± 0.17, R -0.072 ± 0.091
C35: W -0.804 ± 0.27, V -1.17 ± 0.22, Y -0.786 ± 0.39
V54: A -0.151 ± 0.11, Q -0.54 ± 0.26, S -0.261 ± 0.14, H 0.002 ± 0.29, L -0.196 ± 0.15, F -0.479 ± 0.24, Y -0.064 ± 0.26, R -0.131 ± 0.13, K -0.024 ± 0.21, W -0.836 ± 0.36, C -0.097 ± 0.25, G -0.27 ± 0.13, I 0.017 ± 0.12, N -0.262 ± 0.28, M -0.145 ± 0.19, E -0.367 ± 0.22
P38: C -0.166 ± 0.13, E -0.191 ± 0.19, L -0.237 ± 0.086, A -0.042 ± 0.12, H -0.12 ± 0.17, M -0.388 ± 0.15, R -0.116 ± 0.11, V -0.1 ± 0.1, K -0.283 ± 0.26, F -0.564 ± 0.16, D -0.35 ± 0.2, T -0.285 ± 0.2, N 0.041 ± 0.2, G -0.454 ± 0.13, I -0.62 ± 0.31, Y -0.416 ± 0.18, Q 0.178 ± 0.18, W -0.491 ± 0.16
L37: N 0.172 ± 0.19, Q -0.108 ± 0.16, Y -0.328 ± 0.15, S -0.012 ± 0.1, F -0.193 ± 0.17, G -0.134 ± 0.14, A -0.02 ± 0.13, V -0.083 ± 0.13, W 0.182 ± 0.12, P -0.076 ± 0.16, D 0.122 ± 0.16, R 0.092 ± 0.088, K 0.277 ± 0.15, T -0.03 ± 0.18, E -0.073 ± 0.14, H -0.023 ± 0.22, I -0.043 ± 0.22, C -0.137 ± 0.14, M 0.054 ± 0.15
G46: V -0.105 ± 0.14, K -0.383 ± 0.21, W -0.464 ± 0.24, E 0.364 ± 0.26, S -0.204 ± 0.13, H 0.132 ± 0.23, Y -0.366 ± 0.18, C -0.578 ± 0.21, P -0.42 ± 0.31, Q -0.093 ± 0.29, I -0.538 ± 0.21, M -0.235 ± 0.18, D 0.043 ± 0.21, R -0.083 ± 0.15, A -0.059 ± 0.2, L -0.191 ± 0.11, N -0.405 ± 0.2
K45: V -0.179 ± 0.15, L -0.175 ± 0.12, F -0.491 ± 0.21, I -0.25 ± 0.23, A -0.176 ± 0.15, P -0.032 ± 0.14, C -0.156 ± 0.14, H -0.048 ± 0.17, T -0.003 ± 0.17, R -0.067 ± 0.12, Q -0.277 ± 0.16, N -0.022 ± 0.15, D 0.237 ± 0.2, E -0.138 ± 0.16, Y -0.553 ± 0.27, W -0.446 ± 0.2, S -0.266 ± 0.12, M -0.469 ± 0.28
P41: H -0.286 ± 0.23, G -0.078 ± 0.097, K -0.092 ± 0.23, L 0.135 ± 0.1, M -0.55 ± 0.24, I -0.134 ± 0.47, E -0.278 ± 0.19, C -0.185 ± 0.13, W -0.36 ± 0.13, R 0.126 ± 0.083, Q -0.051 ± 0.21, A -0.134 ± 0.13, V -0.051 ± 0.13, Y -0.244 ± 0.22, F -0.261 ± 0.15, T -0.1 ± 0.2, S 0.047 ± 0.094, N -0.157 ± 0.23
C53: P -0.744 ± 0.22, D -0.889 ± 0.28, S -0.835 ± 0.16, T -0.939 ± 0.29, M -0.713 ± 0.34, E -0.952 ± 0.4, R -1 ± 0.17, Y -1.01 ± 0.3, K -0.921 ± 0.48, G -0.865 ± 0.15, W -1.08 ± 0.27, L -0.909 ± 0.2, I -0.941 ± 0.39

Variants of: B2
Assay: as above
Details: Homo sapiens

Abundance fitness, by site and new letter:
H35: T -0.929 ± 0.16, Y -1.06 ± 0.16
F17: S -0.755 ± 0.11
K15: N 0.201 ± 0.17
A46: I -0.863 ± 0.28
C18: D -0.669 ± 0.21
S2: R -0.268 ± 0.096
K14: R 0.02 ± 0.082
H10: F -1.07 ± 0.19
E4: P -0.196 ± 0.12
H38: W -0.708 ± 0.1, G -0.84 ± 0.09
R22: M -0.251 ± 0.15
M6: L -0.13 ± 0.1
A47: R 0.04 ± 0.14
L25: P -1.06 ± 0.27, Y -0.02 ± 0.15
Y37: K 0.058 ± 0.1, D 0.176 ± 0.11
C29: I -1.2 ± 0.36
E3: Y -0.592 ± 0.25
V20: C -0.446 ± 0.093, G -0.485 ± 0.11
C26: W -1.09 ± 0.16
S31: Q -0.152 ± 0.15
Q5: I -0.291 ± 0.27
